The target of assay [1] is catalase from sweet pepper (Capsicum annuum L.) fruits (Capsicum annuum (endogenous in sweet pepper fruits)) (UniProt Q9M5L6). Put plainly: SEC; FPLC gel filtration on Superose 12 in 50 mM Tris-HCl, pH 8.0; ammonium sulfate fraction (20-80%) of green pepper fruit extract; catalase activity followed in fractions; column calibrated with rubisco, ferritin, aldolase, phosphorylase b and myoglobin. (In general: Size exclusion chromatography separates by hydrodynamic size, large species first.)

Assay [2] shares this target. Description: native gel or EMSA; Hedrick and Smith method: non-denaturing PAGE at 5-7% acrylamide, catalase activity staining in gels; BSA monomer, dimer, trimer and tetramer as molecular weight standards.

The values below come from publication PMC6769641.

As for “catalase from sweet pepper (Capsicum annuum L.) fruits (from UniProt Q9M5L6 1-492) (enzyme)”, the stoichiometry N in assay [1] and in assay [2] was 2 in each case.
